Data on 6 molecules can be found in patent US20170355757A1 (Regeneron, published 2017).

The target of one assay is T1, monkey C5-mmh (monkey, UniProt P01031 19-1676 (human entry), limits assumed).
T1 construct: Recombinant monkey C5 with a C-terminal myc-myc-hexahistidine tag
T1 chain: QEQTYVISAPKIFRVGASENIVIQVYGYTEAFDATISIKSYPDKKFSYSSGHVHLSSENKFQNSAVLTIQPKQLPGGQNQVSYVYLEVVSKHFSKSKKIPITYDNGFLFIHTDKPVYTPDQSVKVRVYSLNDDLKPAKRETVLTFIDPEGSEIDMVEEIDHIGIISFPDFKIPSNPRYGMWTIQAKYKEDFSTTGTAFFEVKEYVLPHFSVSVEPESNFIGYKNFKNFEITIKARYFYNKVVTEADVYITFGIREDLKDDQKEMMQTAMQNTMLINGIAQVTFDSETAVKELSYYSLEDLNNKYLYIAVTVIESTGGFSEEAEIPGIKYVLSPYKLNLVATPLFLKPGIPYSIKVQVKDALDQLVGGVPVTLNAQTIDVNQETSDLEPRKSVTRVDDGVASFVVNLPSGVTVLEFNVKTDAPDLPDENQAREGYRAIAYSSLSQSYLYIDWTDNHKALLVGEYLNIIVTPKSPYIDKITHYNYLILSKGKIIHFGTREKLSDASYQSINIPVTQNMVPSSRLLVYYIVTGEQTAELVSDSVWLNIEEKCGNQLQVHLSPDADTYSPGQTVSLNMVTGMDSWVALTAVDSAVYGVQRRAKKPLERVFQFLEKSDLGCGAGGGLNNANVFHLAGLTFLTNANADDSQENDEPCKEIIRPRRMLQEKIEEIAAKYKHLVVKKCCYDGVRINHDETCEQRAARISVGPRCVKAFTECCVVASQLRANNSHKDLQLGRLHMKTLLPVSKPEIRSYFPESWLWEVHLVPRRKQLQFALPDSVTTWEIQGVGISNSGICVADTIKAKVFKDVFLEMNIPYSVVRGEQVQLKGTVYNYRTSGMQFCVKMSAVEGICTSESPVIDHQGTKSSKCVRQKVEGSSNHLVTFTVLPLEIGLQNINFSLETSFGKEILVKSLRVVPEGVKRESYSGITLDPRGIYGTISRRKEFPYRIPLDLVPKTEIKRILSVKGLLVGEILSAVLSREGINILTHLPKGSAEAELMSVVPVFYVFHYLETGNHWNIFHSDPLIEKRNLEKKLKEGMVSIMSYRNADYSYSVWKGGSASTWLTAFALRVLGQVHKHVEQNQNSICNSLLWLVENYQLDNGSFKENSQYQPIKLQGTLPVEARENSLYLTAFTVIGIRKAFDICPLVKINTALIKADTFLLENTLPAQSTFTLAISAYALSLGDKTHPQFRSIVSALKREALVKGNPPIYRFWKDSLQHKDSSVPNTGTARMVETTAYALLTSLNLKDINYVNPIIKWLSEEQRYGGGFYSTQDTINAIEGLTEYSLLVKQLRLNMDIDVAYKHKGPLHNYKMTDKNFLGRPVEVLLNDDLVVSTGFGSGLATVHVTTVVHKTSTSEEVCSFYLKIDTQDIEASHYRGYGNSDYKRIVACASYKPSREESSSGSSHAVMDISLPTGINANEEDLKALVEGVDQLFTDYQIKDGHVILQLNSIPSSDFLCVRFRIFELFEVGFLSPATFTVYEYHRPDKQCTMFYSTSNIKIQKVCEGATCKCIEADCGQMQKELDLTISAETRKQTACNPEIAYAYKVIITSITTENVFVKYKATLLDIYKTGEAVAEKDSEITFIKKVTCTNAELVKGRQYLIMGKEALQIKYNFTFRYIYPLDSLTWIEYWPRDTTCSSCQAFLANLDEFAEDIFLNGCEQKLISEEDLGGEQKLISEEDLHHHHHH
Description: SPR, mAb captured via anti-hFc, 37C. Here is the method:
(§1) Equilibrium dissociation constants (KD values) for C5 binding to purified anti-C5 antibodies were determined using a real-time surface plasmon resonance biosensor assay on a Biacore T200 instrument. The Biacore sensor surface was derivatized by amine coupling with a monoclonal mouse anti-human Fc antibody (GE Healthcare, # BR-1008-39) to capture anti-C5 antibodies expressed with human Fc constant regions. Biacore binding studies were conducted in HBST running buffer (0.01M HEPES pH 7.4, 0.15M NaCl, 3 mM EDTA, 0.05% v/v Surfactant P20).
(§2) Human C5 was obtained from a commercial source (EMD). Other C5 reagents were expressed with a C-terminal myc-myc-hexahistidine tag (subsequently referred to as C5-mmh). […] Association of all the C5 reagents to each of the captured monoclonal antibodies was monitored for 3 minutes and their dissociation in HBST running buffer was monitored for 8 minutes. All the binding kinetics experiments were performed at either 25° C. or 37° C. Kinetic association (kₐ) and dissociation (kd) rate constants were determined by fitting the real-time sensorgrams to a 1:1 binding model using Scrubber 2.0c curve fitting software. Binding dissociation equilibrium constants (KD) and dissociative half-lives (t %) were calculated from the kinetic rate constants as: KD (M)=kd/kₐ and t_{1/2} (min)=In2/(60×kd)
On the technique in general: SPR reads the build-up and loss of mass on a sensor chip optically.

In assay [1] the target is T2, human C5 R885H-mmh (human, UniProt P01031 19-1676).
T2 construct: also called human C5 variant R885H
Description: SPR, mAb captured via anti-hFc, 37C. How it is done: as §1, §2

The target of assay [2] is T3, human C5 R885C-mmh (human, UniProt P01031 19-1676).
T3 construct: also called human C5 variant R885C
Description: SPR, mAb captured via anti-hFc, 37C. Here is the method:
as §1, §2

The target of assay [3] is T2, human C5 R885H-mmh. Description: SPR, mAb captured via anti-hFc, 25C. Here is the method: as §1, §2
For assay [4], the target named is T3, human C5 R885C-mmh. Description: SPR, mAb captured via anti-hFc, 25C. Here is the method:
as §1, §2

A further assay concerns the target T4, human C5 (human, UniProt P01031 19-1676).
T4 construct: Bought human C5 (EMD #204888, said elsewhere to be purified from plasma); also called hC5; complement component 5
Description: SPR, mAb captured via anti-hFc, dissociation at pH7.4 vs pH6.0, 25C. Here is the method: Effect of pH on the rate of dissociation of recombinant human C5 bound to purified anti-C5 monoclonal antibodies was determined using a real-time surface plasmon resonance biosensor using a Biacore T200 instrument. The Biacore sensor surface was first derivatized by amine coupling with a monoclonal mouse anti-human Fc antibody (GE, # BR-1008-39) to capture anti-C5 monoclonal antibodies expressed with human IgG4 Fc. All Biacore binding studies were performed using two running buffers PBS-T, pH7.4 (0.01M Na₂HPO₄/NaH₂PO₄, 0.15M NaCl, 0.05% v/v Tween-20, adjusted to pH7.4) and PBS-T, pH6.0 (0.01M Na₂HPO₄/NaH₂PO₄, 0.15M NaCl, 0.05% v/v Tween-20, adjusted to pH6.0). […] Binding dissociative half-lives (t %) were calculated from kd as: […]

Residue numbers refer to the chain shown, from its start. Numbers in names are those of the source.

B1: H4H12171P (antibody, human IgG4, V domains shown)
VH: EVQLVESGGGVVRPGGSLRLSCAASGFTFDEYGMTWVRQVPGKGLEWVSGITWNGGFTDYTDSVKGRFTSSRDNAKNSLYLQMNSLRAEDTALYYCARDGYSSSWGAYDIWGQGTMVTVSS
VL: DIQMTQSPSSLSASVGDRVTITCRASQSISTYLNWYQQKPGKAPKLLIYAASSLQSGVPLRFSGSGSGTDFTLTISSLQPEDFASYFCQQSYSTPYTFGQGTKLEIK
notes: Human IgG4 Fc with S108P hinge mutation (H4H)
The Kd is the concentration at which binding is half-saturated. In general, koff refers to the rate constant with which the complex falls apart. In general, kon refers to the rate constant with which the complex forms. For the molecule B1, in the assay with monkey C5-mmh, the “100 nM monkey C5-mmh Bound (RU)” value is 78 RU, the Kd was found to be 1.85 nM, the koff is 0.00103 s⁻¹ and the on-rate (kon) came out at 556000 M⁻¹ s⁻¹. For the same molecule, in the assay with monkey C5-mmh, the t1/2 was found to be 11 min. Besides, in the assay with human C5 R885H-mmh [1], the “100 nM Human C5 R885H-mmh Bound (RU)” value was found to be 80 RU, the Kd was found to be 1.63 nM, the koff was determined as 0.000963 s⁻¹ and the kon was determined as 592000 M⁻¹ s⁻¹. In the assay with human C5 R885H-mmh [1], this molecule came in with a t1/2 of 12 min. Moreover, in the assay with human C5 R885C-mmh [2], the “100 nM Human C5 R885C-mmh Bound (RU)” value stood at 78 RU, binding was put at a Kd of 2.01 nM, the dissociation rate constant (koff) came out at 0.000957 s⁻¹ and the kon was 477000 M⁻¹ s⁻¹. In the assay with human C5 R885C-mmh [2], the t1/2 amounted to 12 min. For the same molecule, in the assay with human C5 R885H-mmh [3], the “100 nM Human C5 R885H-mmh Bound (RU)” value was 51 RU, the Kd came out at 0.216 nM, the koff is 0.000142 s⁻¹ and the on-rate (kon) turned out to be 659000 M⁻¹ s⁻¹. Further, in the assay with human C5 R885H-mmh [3], the t1/2 came to 81 min. In the assay with human C5 R885C-mmh [4], the “100 nM Human C5 R885C-mmh Bound (RU)” value turned out to be 51 RU, binding was put at a Kd of 0.366 nM, the koff was determined as 0.000139 s⁻¹ and the kon is 379000 M⁻¹ s⁻¹. Besides, in the assay with human C5 R885C-mmh [4], the t1/2 worked out at 83 min. Further, in the assay with human C5, the “t1/2 Ratio pH7.4/pH6.0” value came out at 0.6.

B2: H4H11683N (antibody, V domains shown)
VH: QVQLVESGGGVVQPGRSLRLSCVASGFTFSSYGIHWVRQAPGKGLEWVAVIWDDGNNINYSDSVKGRFIISRDNSRKTVYLQMNSLRGEDTAVYYCARDAPIAPVPDYWGQGTLVTVSS
VL: DIQMTQSPSTLSASVGDRVTITCRASQSISSWLAWYQQKPGKAPKLLIYKASSLDTGVPSRFSGSGSGTEFTLTISSLQPDDFATYYCQQYNTYSYTFGLGTKLEIK
notes: also called H2M11683N
As for B2, in the assay with monkey C5-mmh, the “100 nM monkey C5-mmh Bound (RU)” value stood at 303 RU, binding was put at a Kd of 2.16 nM, the koff was found to be 0.00115 s⁻¹ and the kon is 535000 M⁻¹ s⁻¹. The molecule also yielded a t1/2 with monkey C5-mmh of 10 min. In addition, in the assay with human C5 R885H-mmh [1], the “100 nM Human C5 R885H-mmh Bound (RU)” value worked out at 81 RU, the dissociation constant (Kd) amounted to 2.69 nM, the koff came out at 0.00147 s⁻¹ and the kon worked out at 548000 M⁻¹ s⁻¹. The same molecule came in with a t1/2 with human C5 R885H-mmh [1] of 8 min. In addition, in the assay with human C5 R885C-mmh [2], the “100 nM Human C5 R885C-mmh Bound (RU)” value amounted to 78 RU, the Kd turned out to be 3.25 nM, the koff amounted to 0.00143 s⁻¹ and the kon was found to be 438000 M⁻¹ s⁻¹. In the assay with human C5 R885C-mmh [2], this molecule registered a t1/2 of 8 min. In addition, in the assay with human C5 R885H-mmh [3], the “100 nM Human C5 R885H-mmh Bound (RU)” value came out at 118 RU, the Kd stood at 0.468 nM, the koff worked out at 0.000246 s⁻¹ and the kon is 526000 M⁻¹ s⁻¹. The molecule further had a t1/2 in the assay with human C5 R885H-mmh [3] of 47 min. Besides, in the assay with human C5 R885C-mmh [4], the “100 nM Human C5 R885C-mmh Bound (RU)” value came out at 116 RU, the Kd came to 0.479 nM, the koff amounted to 0.000239 s⁻¹ and the on-rate (kon) is 499000 M⁻¹ s⁻¹. Also, in the assay with human C5 R885C-mmh [4], the t1/2 was found to be 48 min. In the assay with human C5, the “t1/2 Ratio pH7.4/pH6.0” value amounted to 2.

B3: H4H12166P7 (antibody, human IgG4, V domains shown)
VH: QVQLQESGPGLVKPSETLSLTCTVSGDSVSSSYWTWIRQPPGKGLEWIGYIYYSGSSNYNPSLKSRATISVDTSKNQFSLKLSSVTAADTAVYYCAREHNVDTTMIFDYWGQGTLVTVSS
VL: AIQMTQSPSSLSASVGDRVTITCRASQGIRNDLGWYQQKPGKAPKLLIYAASSLQSGVPSRFAGRGSGTDFTLTISSLQPEDFATYYCLQDFNYPWHFGQGTKVEIK
notes: Histidine-mutated CDR variant of H4H12166P; human IgG4 Fc with S108P
B3: in the assay with monkey C5-mmh, the “100 nM monkey C5-mmh Bound (RU)” value came out at 48 RU, the equilibrium dissociation constant (Kd) stood at 19.3 nM, the koff was found to be 0.00241 s⁻¹ and the kon amounted to 125000 M⁻¹ s⁻¹. The same molecule came in with a t1/2 with monkey C5-mmh of 5 min. Besides, the “t1/2 Ratio pH7.4/pH6.0” value with human C5 came out at 35.

B4: H4H12166P10 (antibody, human IgG4, V domains shown)
VH: B3 VH with H99G, F107H
VL: B3 VL
notes: as for B3
For the molecule B4, in the assay with monkey C5-mmh, the “100 nM monkey C5-mmh Bound (RU)” value came out at 24 RU, the Kd was determined as 42.2 nM, the koff amounted to 0.00279 s⁻¹ and the kon turned out to be 66000 M⁻¹ s⁻¹. This molecule also registered a t1/2 with monkey C5-mmh of 4 min. In addition, the “t1/2 Ratio pH7.4/pH6.0” value with human C5 was found to be 33.

B5: H4H12166P8 (antibody, human IgG4, V domains shown)
VH: B3 VH with H99G, T103H
VL: B3 VL with L89H, H97T
notes: as for B3
With B5, in the assay with monkey C5-mmh, the “100 nM monkey C5-mmh Bound (RU)” value was 53 RU, the Kd is 13.3 nM, the koff was 0.00269 s⁻¹ and the kon was 203000 M⁻¹ s⁻¹. For the same molecule, the t1/2 with monkey C5-mmh worked out at 4 min. For the same molecule, the “t1/2 Ratio pH7.4/pH6.0” value in the assay with human C5 came out at 47.

B6: H4H12166P9 (antibody, human IgG4, V domains shown)
VH: B3 VH with H99G, T103H
VL: B3 VL
notes: as for B3
B6: in the assay with monkey C5-mmh, the “100 nM monkey C5-mmh Bound (RU)” value was found to be 69 RU, binding was put at a Kd of 14.4 nM, the koff was determined as 0.00261 s⁻¹ and the kon stood at 181000 M⁻¹ s⁻¹. This molecule showed a t1/2 in the assay with monkey C5-mmh of 4 min. Also, the “t1/2 Ratio pH7.4/pH6.0” value in the assay with human C5 was found to be 31.
